Measured values reported in the DeepSol protein solubility set.

Test: soluble on expression in E. coli; label from the status in PepcDB or PDB records

| Sequence | soluble on expression in E. coli |
| --- | --- |
| MDAIFNNNFEKYKDDPEMTRALMTSKESLEDENWDTYLQWFKENKYEVLEVKEGKNKSTLTVKATFNSFADIPNDDVMGIIFTEVYKASKNKIKSLDEEDDIFDEEFMINVTNKLMDKSKKETKEIKVYMDKVNGKWDLIEDEDNDDDIVNMELISTMTPLLEKFLEITTEFEGFEGF | not soluble |
| KKHILVYNEEADEALRQIKADRIELHQSFKASFERLNEIQQLAYTNAMTRDAALIQEPDFDPEQLESDYYRNLYRINTRRDNLNTHRALEN | not soluble |
| ASPNSPKDNTWIQAASLTWLMDMSSLLYQLISTRIPSFASPNGLHMREQTIDSNTGQIQIDNEHRLLRWDRRPPNDIFLNGFIPRVTNQNLSPVEDTHLLNYLRTNSPSIFVSTTRARYNNLGLEITPWTPHSANNNIIYRYEIFAPGGIDINASFSRNHNPFPNEDEITFPGGIRPEFIRSTYEYHNGEIVRIWINPNFINPSTLNDVSGPSNISKVFWHENHSEGNNMDSKGFILDLDYNQDFDMFAPNGEIPNNNLLNNNSLNVIQNSEYQIKNKKDRNIVVTLDSDYGGSPVESYKNFGFENQKWNIKYDSKKNAYKIYNRETPTLLLSWNSNSSNGEQVIRGYTESGSNNQYWTIEKNVNGFYKFRNLSDPSKILDLKDGNTLNKTPLVVSSENSSSSQEWLIEKTNYQTVKDGTYQVSSKLNENKVIEQISTNKVHIFSNSDKENQVWNLIYNPILKAYKIKSLKYPNYSLAWDSNNTRTIVAATGDYNDQYWLIERNEDNTYIIRNYENRKIVLDLSNGSTTDGNGLLGFEFHGGINQRWIIKPFSFNSIQDGIYQFMTVINQDLIADLTTNNYTIATKTNNYSSNQKWTVTYNDKKRAYKIRNLQHAHLSLAWDSNHSDKIFGATGDYDDQYWIPILQTDGSFIFRNYKNPNKIFGTNGQPINDIPLKAQDVTGQNNQKWYLRHLNSSNNFTGYFNISSKKNFNKIITMNSNKTQAVIFDNIGINNQSWKLKYNDNKNAYQIHILDNFLYFQGGHNIVATMRNVTNDDLRSYWYVEYNFNKDGFIIRNAFDTSYVLDVFQGNFANNTPIITYQNYLNDNQLWNFIPSLGVEPR | soluble |
| ANIIANTALTIGATKVDVKEITPELLASLNEIGGSEANVASGYHAIEFLLWGQDLNGTKAGAGARSYTDYLQGKACTNNHCDRRAQYLKAAAQLLVTDLEWMEKQWASGEKDNYRQQLLSESAENGLRKMLFGMGSLSLGELAGERMKVALEANSTEDEHDCFSDNTHNSHYYNEQGIYNIYTGSYTRADGSELKGPSLYQLVAEKDANAAKEILQQFEAARTQVGELVTAAEKNNQHFDQLIAADNAAGHAIINQAIMALVAQTGSIERAAGIIGIDNLNPDTADHEF | not soluble |
| MKKARRRIDVDELFEGVRRGDRTLISRAITLLESTAPAHRVLAQELLVKLLPFSGKALRVGITGVPGVGKSTFIEALGMKLIGDGHKLAVLAIDPSSTKTRGSILGDKTRMAKLAREDNAFIRPSPSAGTLGGVAKATRESMVVFEAAGYDVILVETVGVGQSEVAVSQMVDCFTFLALAGAGDQLQGIKKGILEMADLVAINKADGPNLKNAKRAARELAAAMRMVRQENDLWHPPTITMSAVEHEGVDEFWEHVQNHNKAMLESGVFEHNRREQQVQWMWSMVHETLLQRLNTDPNVVEVKKLVEDQLRHAHITPTLAAERILKAFDHVTAD | not soluble |
| MSLQKNGYRIQFTSSRIRDLMYRTTFDPKKMDGDIILNLSLIDKKDLDDVLGIFKMVISSGLSVTPYVKVISEGESIGDMTIEKGKVGIGTVCSITIDGVLLKAGIPVNPKLGGVVQIRNGIPVRFTDVLTYVSTTVDPLEILMSQGITSVSEMLRTGSGKVLANLREAPMVARDEIESNLSDLLDAGFSGILEVGEPNTRVLDVPIERDHLGIVVIGGTNPMAVVQEYGIPIDTSAMSRLISFKEMSRIEDLVEGHHHHHH | soluble |
| MNLIEKTREFAATFHEGEPSSHDMSHINRVEALCMEIQKEEGGDLLILSLAALLHDVGVIKEHEEGGDHALYSSEIAIEFLSRAGVEMKTIEAVAYCIQTHRFSGGKRPETVEARILQDADRLDALGAIGIFRSILSMGALRMLKHTTGLDKGSSKKTVYIEDPVEGFNEYMRYKPFTIPERLNTVTAKRIAGERLKIMHIYLEALNLEAGNGKHKPLEHHHHHH | soluble |
| MDFKTVMQELEALGKERTKKIYISNGAHEPVFGVATGAMKPIAKKIKLNQELAEELYATGNYDAMYFAGIIADPKAMSESDFDRWIDGAYFYMLSDYVVAVTLSESNIAQDVADKWIASGDELKMSAGWSCYCWLLGNRKDNAFSESKISDMLEMVKDTIHHSPERTKSAMNNFLNTVAISYVPLHEKAVEIAKEVGIVEVKRDNKKSSLLNASESIQKELDRGRLGFKRKYVRC | soluble |
| SLQKFNQIHSLFEHLPANYGEFSDFEQKIATLAQEMKVDLSLYEIDHLSIRVNTEDKAKSWLTTLLNYGKILSNNLVNGRAIYLIELEQPLLFMGQRVFIIELPFPKNKHYPVESWEHIEFVIPFLPNESSIEWVERVQQQFLWNQSGNLTIKVDEPKVDGEQLPNPSIAVSFADKSQNHVCIKVHPFNIKNIIKVSEG | soluble |
| DDDGEHGGRRAALVVTDPLTRTECSACHMAYPAALLPARSWTALMADLPNHFGEDASLDEASRGQIESYLVANAADSSGAGRALRGLVQTDTPLRISELPWFKRKHADEVSPRMLEKARSMSNCAACHTGAERGLFDDD | soluble |
| MKRGTITIDGKGNVHIPSTPVWMSACEIADLFGAFSGKVSVQIKTIFKEGLLMETEAMRTIQSGQGFIDLYGIEMITMLSFRIATPQAKTLRRWIIDRLSGKNSSSSPLIVCYTLGKRYN | not soluble |
| MLITKNQAEKWFDNSLGKQFNPDLFYGFQCYDYANMFFMIATGERLQGLYAYNIPFDNKARIEKYGQIIKNYDSFLPQKLDIVVFPSKYGGGAGHVEIVESANLNTFTSFGQNWNGKGWTNGVAQPGWGPETVTRHVHYYDDPMYFIRLNFPDKVSVGDKAKSVIKQATAKKQAVIKPKKIMLVAGHGYNDPGAVGNGTNERDFIRKYITPNIAKYLRHAGHEVALYGGSSQSQDMYQDTAYGVNVGNNKDYGLYWVKSQGYDIVLEIHLDAAGESASGGHVIISSQFNADTIDKSIQDVIKNNLGQIRGVTPRNDLLNVNVSAEININYRLSELGFITNKKDMDWIKKNYDLYSKLIAGAIHGKPIGGLVAGNVKTSAKNQKNPPVPAGYTPDKNNVPYKKETGYYTVANVKGNNVRDGYSTNSRITGVLPNNATIKYDGAYCINGYRWITYIANSGQRRYIATGEVDKAGNRISSFGKFSAVLEHHHHHH | not soluble |
| MSLEGEKRVELHLHSPMSQMDAVTGIGKLVEQAKKWGHEAIALTDHAVVQSFPDAYSAAKKHGIKMIYGMEANLVDDGVPIAYNAAHRLLEEETYVVFDVETTGLSAVYDTIIELAAVKVKGGEIIDKFEAFANPHRPLSATIIELTGITDDMLQDAPDVVDVIRDFREWIGDDILVAHNASFDMGFLNVAYKKLLEVEKAKNPVIDTLELGRFLYPEFKNHRLNTLCKKFDIELTQHHRAIYDTEATAYLLLKMLKDAAEKGIQYHDELNENMGQSNAYQRSRPYHATLLAVNSTGLKNLFKLVSLSHIHYFYRVPRIPRSQLEKYREGLLIGSACDRGEVFEGMMQKSPEEVEDIASFYDYLEVQPPEVYRHLLELELVRDEKALKEIIANITKLGEKLNKPVVATGNVHYLNDEGHHHHHH | soluble |
| MKDLIIIGAGQAGLTMGYYLKQEGYNFLLLEAGNRVGDSWRNRYDSLQLFTPRSYSSLPGMALIGEKNEFPYKDEIATYLEEYARHFQLPVQLQTEVLKIRKEKGIFELHTSTEILQTKKVIIATGGFQQPFIPSVSANLSSHVFQIHSSQYKSPSQIPQGKVLVVGGGNSGMQIAVEFAKTHEVTMSISHPLTFLPLHFFRKSIFNWLEKLGLLYAEVSTKRGKWFQKRKDPLEHHHHHH | soluble |
| MPSPMSTLTTYSEPRGSTTYTLPAMEPSVSRLDTDMNSGLMPRYIFLTPLDSITLLASSGTLLEKPGQDIQRSSPTDSTSHSTRFIGGAPMKVATNVCFGLM | not soluble |
